B1: -024: human monoclonal IgG1 anti-CD38 antibody, VL region SEQ ID No:22 and VH region SEQ ID No:27 (antibody, listed as Homo sapiens, V domains shown)
VH: EVQLVQSGAEVKKPGESLKISCKGSGYSFSNYWIGWVRQMPGKGLEWMGIIYPHDSDARYSPSFQGQVTFSADKSISTAYLQWSSLKASDTAMYYCARHVGWGSRYWYFDLWGRGTLVTVSS
VL: EIVLTQSPATLSLSPGERATLSCRASQSVSSYLAWYQQKPGQAPGLLIYDASNRASGIPARFSGSGSGTDFTLTISSLEPEDFAVYYCQQRSNWPLTFGGGTKVEIK

Tests used:
[1] = test system: fresh plasma cell leukemia tumor cells; experiment: ADCC set up II, plasma cell leukemia tumor cells; assay type: cell-based, human; conditions: in words
Experimental: Human blood from human volunteers (university Erlangen, Erlangen, Germany) was diluted twice in RPMI 1640 and blood cells were layered on Ficoll (Lymphocyte Separation Medium […], 710 g, RT, 20 min; BioWhittaker, Cambrex Bio Science Verviers, Verviers, Belgium, cat. 17-829E, lot no. 0148 32). Peripheral blood mononuclear cells (MNCs) were collected from the interphase, washed and resuspended in RPMI 1640 culture medium supplemented with 10% FCS, 2 mM L-glutamine, 5 U/ml penicillin, 50 μg/ml streptomycin (all derived from BioWhittaker) to which 25 mM HEPES (BioWhittaker) was added.
Target B-cells (fresh plasma cell leukemia tumor cells, JK6L and AMO-1 B-cell lines, obtained from Dr. T. Valerius, University of Erlangen, Erlangen, Germany) were labeled with 20 μCi ^51Cr (Amersham Biosciences, Uppsala, Sweden) for 2 hours. After extensive washing in RPMI-10, cells were adjusted to 1×10^5 cells/ml. […] After incubation (3 hr, 37° C.), assays were stopped by centrifugation, and 51Cr release from triplicates was measured in counts per minute (cpm) in a scintillation counter. Percentage of cellular cytotoxicity was calculated using the following formula: […]
with maximal ^51Cr release determined by adding perchloric acid (3% final concentration) to target cells, and basal release was measured in the absence of sensitizing antibodies and effector cells.

[2] = target: T1, His-tagged extracellular domain of human CD38 (Homo sapiens, UniProt P28907); experiment: Enzymatic activity of recombinant CD38 (cGDPR production); assay type: biochemical; conditions: for cGDPribose production / reduced production of cGDPR: after 90 minutes; for inhibitory effect on the production of cGDPR: recombinant His-CD38
T1 construct: poly-His-tag (N); made in house; secreted into culture supernatant
Experimental: The enzymatic activity of human CD38 was measured in an assay essentially as described in Graeff et al., J. Biol. Chem. 269, 30260-30267 (1994). Briefly, substrate NGD^+ (80 μM) was incubated with CD38 (0.6 μg/ml His-tagged extracellular domain of human CD38, see Example 3 regarding purification of His-CD38) in a buffer containing 20 mM Tris-HCl, pH 7.0. The production of cGDPR can be monitored spectrophotometrically at the emission wavelength of 410 nm (excitation at 300 nm). In this example an excitation filter of 340±60 nm and an emission filter of 430±8 nm was used.
To test the effect of -003, -005 and -024 on the enzymatic activity of CD38, recombinant His-CD38 protein was pre-incubated for 15 min at room temperature with various concentrations (30, 3, 0.3 and 0.03 μg/ml) of the different antibodies before adding the substrate NGD^+. The production of cyclic GDP-ribose (cGDPR) was recorded at different time points after addition of […] (3, 6, 9, 12, 30, 45, 60, 75 and 90 min).

Daudi-luc tumor cells = experiment: In vivo SCID-luciferase experiments; set-up: species or system SCID mice
From the text: In this model tumor cells are transfected with firefly luciferase. Upon administration of luciferin (Molecular Probes, Leiden, The Netherlands) to the mice the labeled cells can be detected in vivo by bioluminescent imaging using a highly sensitive CCD camera, cf. Wetterwald et al., American Journal of Pathology 160(3), 1143-1153 (2002).
Daudi cells were transfected with gWIZ luciferase from Gene Therapy Systems (San Diego, CA) and cultured in RPMI with 10% FCS, Pen/Strep, Sodium Pyruvate and 1 μg/ml puromycin (Sigma). Cells were analysed for luciferase expression (expressed in RLU/1×10^5 cells) in a luminometer and for CD38 expression by FACS. 2.5×10^6 luciferase-transfected Daudi cells/mouse were injected i.v. into SCID mice. Mice were treated with -003, -005, isotype control antibody (HuMab-KLH) or rituximab (anti-CD20 antibody). Antibodies were injected intraperitoneally. Four treatment settings were used (see Table 4). In the preventive setting, antibody (100 μg/mouse) and cells were administered simultaneously. In therapeutic setting I, antibody (300 μg/mouse) was administered 7 days after administration of cells. In therapeutic setting II, antibody (10 μg/mouse) was administered 14 days after administration of cells. In therapeutic setting III, antibody (100 μg/mouse) was administered 7 days after administration of cells. For imaging, mice were anesthetized by i.p. injection of a mixture of ketamine/xylazine/atropine. Synthetic D-Luciferin (sodium salt, Molecular Probes) was given i.p. at a dose of 25 mg/ml. Mice were then placed in a light tight box and after 3 min, imaging was started using a VersArray 1300B liquid nitrogen cooled CCD detector (Roper Scientific). Photons emitted from the luciferase were counted over an exposure period of 5 min. Under illumination black and white images were made for reference. MetaVue software (Universal Imaging Corp) was used for data collection and image analysis. Statistical significance of differences between groups was established using one-way analysis of variance with a Newman-Keuls post test using GraphPad PRISM version 3.02 (Graphpad Software Inc).

| Molecule | ADCC of plasma cell leukemia primary tumor cells [1] | cGDPribose production ([2]; 0.03 μg/ml antibody) | cGDPribose production ([2]; 0.3 μg/ml antibody) | cGDPribose production ([2]; 3 μg/ml antibody) | reduced production of cGDPR ([2]; 3 μg/ml) | cGDPribose production ([2]; 30 μg/ml antibody) | reduced production of cGDPR ([2]; 30 μg/ml) | inhibitory effect on the production of cGDPR [2] | inhibition of growth of tumor cells (Daudi-luc tumor cells; preventive setting, 100 μg/mouse, day 0, i.p.) | inhibition of growth of tumor cells (Daudi-luc tumor cells; therapeutic setting I, 300 μg/mouse, day 7, i.p.) | inhibition of Daudi-luc tumor cell growth (Daudi-luc tumor cells; therapeutic setting III, 100 μg/mouse, day 7, i.p.) |
| --- | --- | --- | --- | --- | --- | --- | --- | --- | --- | --- | --- |
| -005: human monoclonal IgG1 anti-CD38 antibody, VL region SEQ ID No:12 and VH region SEQ ID No:17 | induce ADCC | 102 % of NGD control | 98 % of NGD control | 66 % of NGD control | 34% | 68 % of NGD control | 32% | pronounced inhibitory effect | inhibit growth of tumor cells | inhibit growth of tumor cells | – |
| B1 | induce ADCC | 105 % of NGD control | 104 % of NGD control | 100 % of NGD control | – | 99 % of NGD control | – | No inhibitory effect | – | – | clear inhibition |
